# Experimental data published in PMC8213813, “Mechanism of genome instability mediated by human DNA polymerase mu misincorporation”.
# B1: 1-nt gapped DNA, templating T (crystallization) (dsDNA)
# DNA 1: CGGCTTACG
# DNA 2: CGTA
# DNA 3: GCCG
# modifications: 5'-phosphate on downstream primer
# B2: 2-nt gapped DNA, templating TT (crystallization) (dsDNA)
# DNA 1: CGGCTTTACG
# DNA 2: CGTA
# DNA 3: GCCG
# modifications: 5'-phosphate on downstream primer
# B3: 1-nt gapped DNA after dGTP insertion (T:G product) (dsDNA)
# DNA 1: CGGCTTACG
# DNA 2: CGTAG
# DNA 3: GCCG
# modifications: 5'-phosphate on downstream primer
# Assays:
# [1] = target: DNA polymerase mu core domain Q441A (Homo sapiens, UniProt Q9NP87 136-494, Q441A;del398-410); experiment: X-ray crystallography; dGMPNPP, 10 mM Mg2+ (Complex 4); Crystals: protein (~7 mg/ml in 25 mM Tris/HCl pH 7.5, 100 mM KCl, 1 mM DTT) with DNA at 1:1.5; binary: 0.1 M sodium citrate pH 5.5, 18% 2-propanol, PEG4000; ternary: pH 6.5-8.0, PEG3350 or PEG10000; nucleotide/metal soak 4 h at 4 °C; details: protein: recombinant; tags: His (pET28a, nickel purified); template 9 nt + upstream primer 4 nt + downstream primer 4 nt; 1-nt gap; blunt outer ends
# [2] = target: T1, DNA polymerase mu core domain (WT) (Homo sapiens, UniProt Q9NP87 136-494, del398-410); experiment: X-ray crystallography; binary; Mg2+; Crystals: protein (~7 mg/ml in 25 mM Tris/HCl pH 7.5, 100 mM KCl, 1 mM DTT) with DNA at 1:1.5; binary: 0.1 M sodium citrate pH 5.5, 18% 2-propanol, PEG4000; ternary: pH 6.5-8.0, PEG3350 or PEG10000; nucleotide/metal soak 4 h at 4 °C; details: protein: recombinant; tags: His (pET28a, nickel purified); template 9 nt + upstream primer 4 nt + downstream primer 4 nt; 1-nt gap; blunt outer ends
# [3] = target: T2, DNA polymerase mu core domain K438A/Q441A (Homo sapiens, UniProt Q9NP87 136-494, K438A;Q441A;del398-410); experiment: X-ray crystallography; dGMPNPP, 10 mM Mg2+ (Complex 5); Crystals: protein (~7 mg/ml in 25 mM Tris/HCl pH 7.5, 100 mM KCl, 1 mM DTT) with DNA at 1:1.5; binary: 0.1 M sodium citrate pH 5.5, 18% 2-propanol, PEG4000; ternary: pH 6.5-8.0, PEG3350 or PEG10000; nucleotide/metal soak 4 h at 4 °C; details: protein: recombinant; tags: His (pET28a, nickel purified); template 9 nt + upstream primer 4 nt + downstream primer 4 nt; 1-nt gap; blunt outer ends
# [4] = target: T1, DNA polymerase mu core domain (WT); experiment: X-ray crystallography; dGMPNPP, 10 mM Mg2+ (Complex 1); Crystals: protein (~7 mg/ml in 25 mM Tris/HCl pH 7.5, 100 mM KCl, 1 mM DTT) with DNA at 1:1.5; binary: 0.1 M sodium citrate pH 5.5, 18% 2-propanol, PEG4000; ternary: pH 6.5-8.0, PEG3350 or PEG10000; nucleotide/metal soak 4 h at 4 °C; details: protein: recombinant; tags: His (pET28a, nickel purified); template 10 nt + upstream primer 4 nt + downstream primer 4 nt; 2-nt gap; blunt outer ends
# [5] = target: T2, DNA polymerase mu core domain …; experiment: X-ray crystallography; post-insertion; second dGTP (10 mM soak), 10 mM Mg2+, Na+; Crystals: protein (~7 mg/ml in 25 mM Tris/HCl pH 7.5, 100 mM KCl, 1 mM DTT) with DNA at 1:1.5; binary: 0.1 M sodium citrate pH 5.5, 18% 2-propanol, PEG4000; ternary: pH 6.5-8.0, PEG3350 or PEG10000; nucleotide/metal soak 4 h at 4 °C; details: protein: recombinant; tags: His (pET28a, nickel purified); template 9 nt + extended primer 5 nt + downstream primer 4 nt; nascent dG displaced by second dGTP
# T2 sequence (Q9NP87 other isoform, or with tags, fused parts or gaps K438A;Q441A;del398-410 | K438A Q441A K438A Q441A): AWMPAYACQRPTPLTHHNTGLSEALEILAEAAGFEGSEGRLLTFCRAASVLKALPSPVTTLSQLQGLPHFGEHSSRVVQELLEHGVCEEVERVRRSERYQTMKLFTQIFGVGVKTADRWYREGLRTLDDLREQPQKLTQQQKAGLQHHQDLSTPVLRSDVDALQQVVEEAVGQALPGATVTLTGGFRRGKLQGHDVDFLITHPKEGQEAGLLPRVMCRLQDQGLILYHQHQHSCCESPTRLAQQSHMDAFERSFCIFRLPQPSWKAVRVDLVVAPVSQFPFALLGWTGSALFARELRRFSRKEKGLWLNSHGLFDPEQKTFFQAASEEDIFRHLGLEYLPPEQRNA
# T1 sequence (Q9NP87 other isoform, or with tags, fused parts or gaps del398-410): as the sequence (Q9NP87 other isoform, or with tags, fused parts or gaps K438A;Q441A;del398-410 | K438A Q441A K438A Q441A) above, with A290K, A293Q counted along it
# Chain of DNA polymerase mu core domain Q441A (Q9NP87 other isoform, or with tags, fused parts or gaps Q441A;del398-410 | Q441A Q441A): as the sequence (Q9NP87 other isoform, or with tags, fused parts or gaps K438A;Q441A;del398-410 | K438A Q441A K438A Q441A) above, with A290K counted along it
binder,measurement,setting,value
B1,binding result,[1],binds
same,binding result,[2],binds
same,binding result,[3],binds
B2,binding result,[4],binds
B3,binding result,[5],binds
